Consider 2 molecules from publication PMC4118869 (PLoS ONE, 2014).

The test concerns the target recombinant H5-HA, A/Vietnam/1203/2004 (H5N1) (Influenza A virus A/Vietnam/1203/2004 …, UniProt Q5EP31, strain). As to the kind of experiment: SPR. Conditions: both partners purified.

B1: R1a-B6 monovalent (VHH)
VHH: QVQLVESGGGLVQPGGSLRLSCAASGSFFSRYRMGWYRQAPGEQRELVASIAYDGSTSYADPVKGRFTISRDNANTVHLQMYSLKPDDTAVYYCNLDPPGILYWGQGTQVTVSS
notes: source: E. coli WK6, periplasmic extract, purified (Talon IMAC, Superdex 75 SEC)
B1: the Kd turned out to be 0.51 nM.

B2: R1a-A5 monovalent (VHH)
VHH: QVQLVESGGGLVQPGGSLRLSCSASGSAVLFSTYPMSWYRQAPGKQRELVAAVTTDGSTSYADYAKGRFTISRDNAKNTVYLQMNSLKPEDTAVYYCNARDGFFNRYDYWGQGTQVTVSS
notes: as for B1
As to B2, the Kd is 0.27 nM.

As usually defined, the Kd is a measure of binding affinity in units of concentration.
